Results reported in patent US20120214174.

Columns and labels:
[1] = molecular target: endogenous MUC1 protein (Mucin-1)
[2] = molecular target: T1, MUC1-a peptide (AHGVTSAPDTR)
T1 chain: AHGVTSAPDTR

[3] = molecular target: T2, MUC1-b peptide (RPAPGSTAPPA)
T2 chain: RPAPGSTAPPA

Protein | Western blot of MUC1 in stable HeLa transformants (band shift by O-glycosylation) [1] | in vitro GalNAc-transferase assay (HPLC of DNS-labelled peptide) [2] | in vitro GalNAc-transferase assay (HPLC of DNS-labelled peptide) [3]
HA-tagged wild-type GALNT6 protein stably expressed in HeLa cells (pCAGGS-GALNT6-HA) (protein) MRLLRRRHMPLRLAMVGCAFVLFLFLLHRDVSSREEATEKPWLKSLVSRKDHVLDLMLEAMNNLRDSMPKLQIRAPEAQQTLFSINQSCLPGFYTPAELKPFWERPPQDPNAPGADGKAFQKSKWTPLETQEKEEGYKKHCFNAFASDRISLQRSLGPDTRPPECVDQKFRRCPPLATTSVIIVFHNEAWSTLLRTVYSVLHTTPAILLKEIILVDDASTEEHLKEKLEQYVKQLQVVRVVRQEERKGLITARLLGASVAQAEVLTFLDAHCECFHGWLEPLLARIAEDKTVVVSPDIVTIDLNTFEFAKPVQRGRVHSRGNFDWSLTFGWETLPPHEKQRRKDETYPIKSPTFAGGLFSISKSYFEHIGTYDNQMEIWGGENVEMSFRVWQCGGQLEIIPCSVVGHVFRTKSPHTFPKGTSVIARNQVRLAEVWMDSYKKIFYRRNLQAAKMAQEKSFGDISERLQLREQLHCHNFSWYLHNVYPEMFVPDLTPTFYGAIKNLGTNQCLDVGENNRGGKPLIMYSCHGLGGNQYFEYTTQRDLRHNIAKQLCLHVSKGALGLGSCHFTGKNSQVPKDEEWELAQDQLIRNSGSGTCLTSQDKKPAMAPCNPSDPHQLWLFV | In the cells with WT-GALNT6 (clone no. 101, 110 and 304), the highest molecular weight of MUC1 protein (>250 kDa) was observed |  | 
HA-tagged GALNT6 H271D mutant stably expressed in HeLa cells (pCAGGS-GALNT6 (H271D)-HA) (protein) MRLLRRRHMPLRLAMVGCAFVLFLFLLHRDVSSREEATEKPWLKSLVSRKDHVLDLMLEAMNNLRDSMPKLQIRAPEAQQTLFSINQSCLPGFYTPAELKPFWERPPQDPNAPGADGKAFQKSKWTPLETQEKEEGYKKHCFNAFASDRISLQRSLGPDTRPPECVDQKFRRCPPLATTSVIIVFHNEAWSTLLRTVYSVLHTTPAILLKEIILVDDASTEEHLKEKLEQYVKQLQVVRVVRQEERKGLITARLLGASVAQAEVLTFLDADCECFHGWLEPLLARIAEDKTVVVSPDIVTIDLNTFEFAKPVQRGRVHSRGNFDWSLTFGWETLPPHEKQRRKDETYPIKSPTFAGGLFSISKSYFEHIGTYDNQMEIWGGENVEMSFRVWQCGGQLEIIPCSVVGHVFRTKSPHTFPKGTSVIARNQVRLAEVWMDSYKKIFYRRNLQAAKMAQEKSFGDISERLQLREQLHCHNFSWYLHNVYPEMFVPDLTPTFYGAIKNLGTNQCLDVGENNRGGKPLIMYSCHGLGGNQYFEYTTQRDLRHNIAKQLCLHVSKGALGLGSCHFTGKNSQVPKDEEWELAQDQLIRNSGSGTCLTSQDKKPAMAPCNPSDPHQLWLFV | in those with mock (clone no. 001, 003 and 006) or H271D (clone no. 102, 212 and 114) the shifted band was not observed |  | 
recombinant wild-type GALNT6 protein without a signal peptide (codons 35-622), His-tagged (protein) EEATEKPWLKSLVSRKDHVLDLMLEAMNNLRDSMPKLQIRAPEAQQTLFSINQSCLPGFYTPAELKPFWERPPQDPNAPGADGKAFQKSKWTPLETQEKEEGYKKHCFNAFASDRISLQRSLGPDTRPPECVDQKFRRCPPLATTSVIIVFHNEAWSTLLRTVYSVLHTTPAILLKEIILVDDASTEEHLKEKLEQYVKQLQVVRVVRQEERKGLITARLLGASVAQAEVLTFLDAHCECFHGWLEPLLARIAEDKTVVVSPDIVTIDLNTFEFAKPVQRGRVHSRGNFDWSLTFGWETLPPHEKQRRKDETYPIKSPTFAGGLFSISKSYFEHIGTYDNQMEIWGGENVEMSFRVWQCGGQLEIIPCSVVGHVFRTKSPHTFPKGTSVIARNQVRLAEVWMDSYKKIFYRRNLQAAKMAQEKSFGDISERLQLREQLHCHNFSWYLHNVYPEMFVPDLTPTFYGAIKNLGTNQCLDVGENNRGGKPLIMYSCHGLGGNQYFEYTTQRDLRHNIAKQLCLHVSKGALGLGSCHFTGKNSQVPKDEEWELAQDQLIRNSGSGTCLTSQDKKPAMAPCNPSDPHQLWLFV |  | WT-GALNT6 rapidly O-glycosylated MUC1 peptides in 10-min incubation | WT-GALNT6 rapidly O-glycosylated MUC1 peptides in 10-min incubation
recombinant GALNT6 H271D mutant protein (protein) EEATEKPWLKSLVSRKDHVLDLMLEAMNNLRDSMPKLQIRAPEAQQTLFSINQSCLPGFYTPAELKPFWERPPQDPNAPGADGKAFQKSKWTPLETQEKEEGYKKHCFNAFASDRISLQRSLGPDTRPPECVDQKFRRCPPLATTSVIIVFHNEAWSTLLRTVYSVLHTTPAILLKEIILVDDASTEEHLKEKLEQYVKQLQVVRVVRQEERKGLITARLLGASVAQAEVLTFLDADCECFHGWLEPLLARIAEDKTVVVSPDIVTIDLNTFEFAKPVQRGRVHSRGNFDWSLTFGWETLPPHEKQRRKDETYPIKSPTFAGGLFSISKSYFEHIGTYDNQMEIWGGENVEMSFRVWQCGGQLEIIPCSVVGHVFRTKSPHTFPKGTSVIARNQVRLAEVWMDSYKKIFYRRNLQAAKMAQEKSFGDISERLQLREQLHCHNFSWYLHNVYPEMFVPDLTPTFYGAIKNLGTNQCLDVGENNRGGKPLIMYSCHGLGGNQYFEYTTQRDLRHNIAKQLCLHVSKGALGLGSCHFTGKNSQVPKDEEWELAQDQLIRNSGSGTCLTSQDKKPAMAPCNPSDPHQLWLFV |  | mutant-GALNT6 proteins (H271D and E382Q) could not transfer GalNAc to MUC1 peptides even by 16 hours incubation | mutant-GALNT6 proteins (H271D and E382Q) could not transfer GalNAc to MUC1 peptides even by 16 hours incubation
recombinant GALNT6 E382Q mutant protein (protein) EEATEKPWLKSLVSRKDHVLDLMLEAMNNLRDSMPKLQIRAPEAQQTLFSINQSCLPGFYTPAELKPFWERPPQDPNAPGADGKAFQKSKWTPLETQEKEEGYKKHCFNAFASDRISLQRSLGPDTRPPECVDQKFRRCPPLATTSVIIVFHNEAWSTLLRTVYSVLHTTPAILLKEIILVDDASTEEHLKEKLEQYVKQLQVVRVVRQEERKGLITARLLGASVAQAEVLTFLDAHCECFHGWLEPLLARIAEDKTVVVSPDIVTIDLNTFEFAKPVQRGRVHSRGNFDWSLTFGWETLPPHEKQRRKDETYPIKSPTFAGGLFSISKSYFEHIGTYDNQMEIWGGQNVEMSFRVWQCGGQLEIIPCSVVGHVFRTKSPHTFPKGTSVIARNQVRLAEVWMDSYKKIFYRRNLQAAKMAQEKSFGDISERLQLREQLHCHNFSWYLHNVYPEMFVPDLTPTFYGAIKNLGTNQCLDVGENNRGGKPLIMYSCHGLGGNQYFEYTTQRDLRHNIAKQLCLHVSKGALGLGSCHFTGKNSQVPKDEEWELAQDQLIRNSGSGTCLTSQDKKPAMAPCNPSDPHQLWLFV |  | mutant-GALNT6 proteins (H271D and E382Q) could not transfer GalNAc to MUC1 peptides even by 16 hours incubation | mutant-GALNT6 proteins (H271D and E382Q) could not transfer GalNAc to MUC1 peptides even by 16 hours incubation
